From patent US20150064134A1

What was measured:
Test in all cases: cell-based or functional assay
CK1δ(h) (human) = CK1δ(h) (human) (UniProt P48730)
CaMKIIδ(h) (human) = CaMKIIδ(h) (human) (UniProt Q13557)
EphA3(h) (human) = target: T1, EphA3(h) (human) (UniProt P29320)
T1 sequence (looked up): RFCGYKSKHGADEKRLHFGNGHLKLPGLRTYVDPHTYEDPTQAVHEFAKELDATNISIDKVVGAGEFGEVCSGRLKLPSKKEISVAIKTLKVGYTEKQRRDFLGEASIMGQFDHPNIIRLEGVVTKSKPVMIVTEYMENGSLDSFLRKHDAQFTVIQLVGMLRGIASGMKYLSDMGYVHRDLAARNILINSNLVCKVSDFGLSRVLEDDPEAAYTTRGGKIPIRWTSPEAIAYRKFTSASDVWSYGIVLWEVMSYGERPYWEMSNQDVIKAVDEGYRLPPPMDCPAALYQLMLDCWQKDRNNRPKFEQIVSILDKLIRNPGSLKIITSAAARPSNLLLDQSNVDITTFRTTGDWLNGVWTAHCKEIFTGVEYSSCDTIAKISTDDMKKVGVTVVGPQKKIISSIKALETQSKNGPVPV

FGFR4(h) (human) = FGFR4(h) (human) (UniProt P22455)
Sequence of FGFR4(h) (human) (P22455 442-753 limits assumed): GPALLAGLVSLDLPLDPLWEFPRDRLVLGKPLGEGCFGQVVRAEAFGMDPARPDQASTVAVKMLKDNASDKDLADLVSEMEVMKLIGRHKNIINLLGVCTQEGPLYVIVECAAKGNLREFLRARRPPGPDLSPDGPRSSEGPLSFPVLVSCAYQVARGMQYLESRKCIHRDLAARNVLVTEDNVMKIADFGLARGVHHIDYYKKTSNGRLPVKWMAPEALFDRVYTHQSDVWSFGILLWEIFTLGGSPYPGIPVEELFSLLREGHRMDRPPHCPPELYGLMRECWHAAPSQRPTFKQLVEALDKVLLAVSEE

Fes(h) (human) = Fes(h) (human) (UniProt P07332)
Flt3(D835Y)(h) (human) = target: T2, Flt3(D835Y)(h) (human) (UniProt P36888)
T2 sequence (looked up): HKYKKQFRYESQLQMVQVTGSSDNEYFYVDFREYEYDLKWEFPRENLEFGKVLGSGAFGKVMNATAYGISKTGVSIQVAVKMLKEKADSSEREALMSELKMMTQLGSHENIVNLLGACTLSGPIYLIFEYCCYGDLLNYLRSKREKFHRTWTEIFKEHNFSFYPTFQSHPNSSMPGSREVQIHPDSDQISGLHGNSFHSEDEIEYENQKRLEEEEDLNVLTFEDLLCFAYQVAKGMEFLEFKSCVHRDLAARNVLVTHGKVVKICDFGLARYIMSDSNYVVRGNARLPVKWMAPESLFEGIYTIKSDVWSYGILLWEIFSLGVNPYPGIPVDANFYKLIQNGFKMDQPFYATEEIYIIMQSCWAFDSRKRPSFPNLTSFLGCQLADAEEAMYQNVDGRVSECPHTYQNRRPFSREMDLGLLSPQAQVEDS

MAPK2(h) (human) = MAPK2(h) (human) (UniProt P28482)
Sequence of MAPK2(h) (human) (P28482 whole entry): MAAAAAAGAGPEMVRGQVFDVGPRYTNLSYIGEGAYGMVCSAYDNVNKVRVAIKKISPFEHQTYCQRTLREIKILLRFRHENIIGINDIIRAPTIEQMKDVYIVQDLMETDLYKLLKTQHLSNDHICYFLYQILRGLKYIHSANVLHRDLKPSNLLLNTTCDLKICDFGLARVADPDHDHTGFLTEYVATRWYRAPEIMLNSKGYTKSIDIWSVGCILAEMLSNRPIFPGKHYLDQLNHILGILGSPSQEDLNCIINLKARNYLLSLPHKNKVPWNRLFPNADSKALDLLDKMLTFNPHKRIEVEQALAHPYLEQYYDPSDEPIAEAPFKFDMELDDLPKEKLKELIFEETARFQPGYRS

PKCβI(h) (human) = PKCβI(h) (human) (UniProt P05771)
PKCγ(h) (human) = PKCγ(h) (human) (UniProt P05129)
PKCδ(h) (human) = PKCδ(h) (human) (UniProt Q05655)
PKCζ(h) (human) = target: T3, PKCζ(h) (human) (UniProt Q05513)
T3 sequence (looked up): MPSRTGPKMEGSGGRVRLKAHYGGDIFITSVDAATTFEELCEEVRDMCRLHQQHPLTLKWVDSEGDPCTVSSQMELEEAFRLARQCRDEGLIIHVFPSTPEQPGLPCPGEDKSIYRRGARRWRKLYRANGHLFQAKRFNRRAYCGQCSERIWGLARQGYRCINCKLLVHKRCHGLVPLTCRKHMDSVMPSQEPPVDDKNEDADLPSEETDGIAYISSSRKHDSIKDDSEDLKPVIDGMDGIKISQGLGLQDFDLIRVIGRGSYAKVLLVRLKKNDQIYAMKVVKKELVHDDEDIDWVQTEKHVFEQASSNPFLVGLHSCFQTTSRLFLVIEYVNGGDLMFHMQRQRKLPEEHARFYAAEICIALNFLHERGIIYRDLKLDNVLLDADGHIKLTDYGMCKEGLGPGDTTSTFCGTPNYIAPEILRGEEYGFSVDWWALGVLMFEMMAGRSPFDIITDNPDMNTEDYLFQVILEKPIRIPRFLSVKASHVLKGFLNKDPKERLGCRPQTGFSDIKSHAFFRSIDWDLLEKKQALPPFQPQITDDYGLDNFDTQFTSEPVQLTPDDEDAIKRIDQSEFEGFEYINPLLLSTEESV

Pim-1(h) (human) = Pim-1(h) (human) (UniProt P11309)
Ron(h) (human) = Ron(h) (human) (UniProt Q04912)
Sequence of Ron(h) (human) (Q04912 983-1400 limits assumed): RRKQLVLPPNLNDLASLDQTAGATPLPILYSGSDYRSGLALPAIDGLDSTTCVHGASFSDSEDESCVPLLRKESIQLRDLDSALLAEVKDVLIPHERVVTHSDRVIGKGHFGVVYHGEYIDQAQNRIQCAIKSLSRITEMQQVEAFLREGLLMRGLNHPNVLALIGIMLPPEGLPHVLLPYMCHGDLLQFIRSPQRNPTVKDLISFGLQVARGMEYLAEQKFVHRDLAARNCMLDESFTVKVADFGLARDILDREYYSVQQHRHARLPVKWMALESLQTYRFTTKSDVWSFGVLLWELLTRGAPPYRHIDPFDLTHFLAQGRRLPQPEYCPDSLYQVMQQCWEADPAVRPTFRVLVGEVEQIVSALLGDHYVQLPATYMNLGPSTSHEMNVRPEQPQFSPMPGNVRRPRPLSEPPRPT

TAO3(h) (human) = target: T4, TAO3(h) (human) (UniProt Q9H2K8)
T4 sequence (looked up): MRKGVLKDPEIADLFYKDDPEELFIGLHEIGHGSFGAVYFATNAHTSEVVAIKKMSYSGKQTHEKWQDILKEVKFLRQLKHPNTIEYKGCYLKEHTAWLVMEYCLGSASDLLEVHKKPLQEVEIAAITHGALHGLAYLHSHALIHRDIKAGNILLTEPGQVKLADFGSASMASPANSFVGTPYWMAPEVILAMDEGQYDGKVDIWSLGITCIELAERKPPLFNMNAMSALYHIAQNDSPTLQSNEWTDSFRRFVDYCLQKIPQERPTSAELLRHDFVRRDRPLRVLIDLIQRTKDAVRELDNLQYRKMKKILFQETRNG

Txk(h) (human) = target: T5, Txk(h) (human) (UniProt P42681)
T5 sequence (looked up): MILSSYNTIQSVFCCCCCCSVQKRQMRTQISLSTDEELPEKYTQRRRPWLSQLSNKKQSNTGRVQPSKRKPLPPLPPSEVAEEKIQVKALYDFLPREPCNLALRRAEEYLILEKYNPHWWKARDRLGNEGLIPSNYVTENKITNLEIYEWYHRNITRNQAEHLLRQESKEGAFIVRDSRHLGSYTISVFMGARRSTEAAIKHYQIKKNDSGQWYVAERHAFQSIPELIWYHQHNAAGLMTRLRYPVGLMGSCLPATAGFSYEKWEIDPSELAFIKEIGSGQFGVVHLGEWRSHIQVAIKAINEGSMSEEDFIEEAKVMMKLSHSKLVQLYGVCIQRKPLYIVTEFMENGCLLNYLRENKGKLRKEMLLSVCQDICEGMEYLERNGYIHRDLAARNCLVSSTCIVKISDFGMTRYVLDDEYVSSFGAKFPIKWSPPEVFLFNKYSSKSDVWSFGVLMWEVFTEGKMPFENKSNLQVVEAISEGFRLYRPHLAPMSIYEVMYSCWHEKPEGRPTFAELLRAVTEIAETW

mTOR/FKBP12(h) (human) = mTOR/FKBP12(h) (human) (UniProt P42345)
Sequence of mTOR/FKBP12(h) (human) (P42345 1362-2549 limits assumed, chain 1 of 2): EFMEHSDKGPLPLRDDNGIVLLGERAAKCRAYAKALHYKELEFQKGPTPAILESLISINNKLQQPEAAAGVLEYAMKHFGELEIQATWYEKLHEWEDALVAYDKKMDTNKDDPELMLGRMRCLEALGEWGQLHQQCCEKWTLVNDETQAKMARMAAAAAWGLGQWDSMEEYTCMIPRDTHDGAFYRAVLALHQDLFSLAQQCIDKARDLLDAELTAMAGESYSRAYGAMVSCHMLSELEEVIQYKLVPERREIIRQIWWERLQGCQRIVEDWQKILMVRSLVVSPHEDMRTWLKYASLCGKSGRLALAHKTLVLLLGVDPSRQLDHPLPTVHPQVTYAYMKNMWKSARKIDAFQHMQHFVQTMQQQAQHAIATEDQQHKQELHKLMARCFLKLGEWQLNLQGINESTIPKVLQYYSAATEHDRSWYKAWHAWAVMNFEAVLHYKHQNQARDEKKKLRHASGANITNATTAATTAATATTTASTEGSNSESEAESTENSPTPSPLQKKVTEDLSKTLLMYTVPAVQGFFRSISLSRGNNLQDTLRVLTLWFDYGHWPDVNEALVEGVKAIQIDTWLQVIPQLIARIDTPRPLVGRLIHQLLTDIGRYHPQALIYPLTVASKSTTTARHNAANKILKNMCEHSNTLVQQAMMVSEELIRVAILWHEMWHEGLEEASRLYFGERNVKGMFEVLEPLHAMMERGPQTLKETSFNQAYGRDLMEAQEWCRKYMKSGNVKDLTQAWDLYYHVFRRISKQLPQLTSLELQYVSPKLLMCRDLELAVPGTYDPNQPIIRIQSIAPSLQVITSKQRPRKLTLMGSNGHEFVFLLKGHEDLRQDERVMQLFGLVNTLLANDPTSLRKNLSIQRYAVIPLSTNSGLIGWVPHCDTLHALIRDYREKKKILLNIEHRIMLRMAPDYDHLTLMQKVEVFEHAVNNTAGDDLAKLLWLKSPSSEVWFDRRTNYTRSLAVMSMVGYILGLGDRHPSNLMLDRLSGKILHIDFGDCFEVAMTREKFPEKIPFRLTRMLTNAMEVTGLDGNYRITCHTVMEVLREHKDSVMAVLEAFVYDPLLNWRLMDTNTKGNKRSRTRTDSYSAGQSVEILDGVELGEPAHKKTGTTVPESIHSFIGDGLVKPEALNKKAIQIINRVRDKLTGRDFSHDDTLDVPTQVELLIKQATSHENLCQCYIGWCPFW
Sequence of mTOR/FKBP12(h) (human) (P62942 whole entry, chain 2 of 2, further chain): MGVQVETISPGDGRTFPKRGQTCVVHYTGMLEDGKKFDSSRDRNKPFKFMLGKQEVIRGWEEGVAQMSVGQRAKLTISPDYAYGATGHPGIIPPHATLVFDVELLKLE

Substance	% activity at 100 µM (CK1δ(h) (human)) [%]	% activity at 100 µM (CaMKIIδ(h) (human)) [%]	% activity at 100 µM (EphA3(h) (human)) [%]	% activity at 100 µM (FGFR4(h) (human)) [%]	% activity at 100 µM (Fes(h) (human)) [%]	% activity at 100 µM (Flt3(D835Y)(h) (human)) [%]	% activity at 100 µM (MAPK2(h) (human)) [%]	% activity at 100 µM (PKCβI(h) (human)) [%]	% activity at 100 µM (PKCγ(h) (human)) [%]	% activity at 100 µM (PKCδ(h) (human)) [%]	% activity at 100 µM (PKCζ(h) (human)) [%]	% activity at 100 µM (Pim-1(h) (human)) [%]	% activity at 100 µM (Ron(h) (human)) [%]	% activity at 100 µM (TAO3(h) (human)) [%]	% activity at 100 µM (Txk(h) (human)) [%]	% activity at 100 µM (mTOR/FKBP12(h) (human)) [%]
MMI-0400 (peptide)	93	2	12	19	16	71	93	78	79	90	75	7	79	67	37	125
MMI-0300 (peptide)	92	1	6	28	20	80	98	78	89	101	81	8	93	77	48	145
MMI-0500 (peptide)	78	1	33	3	23	65	60	1	6	61	7	0	46	12	10	140
